# Data reported in patent US20200376013.
# System: SDM-145
# Chain of hMMP-9 (chain, as listed by the source): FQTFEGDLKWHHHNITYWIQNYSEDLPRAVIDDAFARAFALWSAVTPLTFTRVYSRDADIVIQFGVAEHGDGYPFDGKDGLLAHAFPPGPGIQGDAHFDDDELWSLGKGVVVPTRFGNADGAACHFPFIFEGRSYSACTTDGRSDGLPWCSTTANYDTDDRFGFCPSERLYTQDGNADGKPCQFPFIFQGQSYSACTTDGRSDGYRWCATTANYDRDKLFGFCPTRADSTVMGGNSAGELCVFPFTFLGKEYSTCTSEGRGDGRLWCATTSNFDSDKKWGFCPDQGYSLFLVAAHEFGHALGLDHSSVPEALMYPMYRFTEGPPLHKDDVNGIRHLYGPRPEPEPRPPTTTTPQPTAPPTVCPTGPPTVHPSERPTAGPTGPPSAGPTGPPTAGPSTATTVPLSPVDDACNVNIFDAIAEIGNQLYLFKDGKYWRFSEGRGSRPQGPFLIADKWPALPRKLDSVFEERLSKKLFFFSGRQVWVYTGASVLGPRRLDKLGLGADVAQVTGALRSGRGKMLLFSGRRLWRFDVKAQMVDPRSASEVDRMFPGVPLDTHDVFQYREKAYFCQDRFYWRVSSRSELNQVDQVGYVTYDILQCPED
Substance,"cleavage followed by LC-MS with fluorescence detection (ex 480 nm, em 560 nm), TCNB buffer pH 7.5, 37 C","cleavage followed by LC-MS with fluorescence detection (ex 480 nm, em 560 nm), sodium acetate buffer pH 5.0, 37 C"
hMMP-9,The cleavage reaction was complete after 17 hour.,
"Cathepsin B, human liver",,The cleavage reaction was complete after 17 hour.
